Assay results reported in the supplement of paper PMC7125110.
± gives the standard error. For part of these data: Fewer inactive variants are shown than the library holds.

B1: glmS ribozyme (parent)
chain: AUAAAAGCGCCAGAACUACAGAAAUGUAGUUGACGAGGAGGAGGUUUAUCGAAUUUUCGGCGGAUGCCUCCAAA

Tests used:
Conditions in all cases: with glucosamine-6-phosphate
[1] = variants of: B1; experiment: kcat; higher = faster cleavage; RNA array
Method in brief: (§1)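 In situ transcription by E. coli RNA polymerase produced barcoded ribozyme variants on sequenced MiSeq chips, and a hybridised Cy3 probe tracked them at 37 °C. Glucosamine-6-phosphate was flowed in at 40 μM to 10 mM in HEPES/KCl/Mg(OAc)2 buffer. kcat and KM were taken from weighted Michaelis–Menten fits of kobs values from exponential decay fits.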

[2] = variants of: B1; experiment: KM; higher = weaker cofactor use; RNA array
Method in brief: as §1

[3] = variants of: B1; experiment: self-cleavage kobs at 640 uM GlcN6P; higher = faster cleavage; RNA array
Method in brief: as §1

[4] = variants of: B1; experiment: self-cleavage kobs at 2500 uM GlcN6P; higher = faster cleavage; RNA array
Method in brief: as §1

[5] = variants of: B1; experiment: self-cleavage kobs at 10000 uM GlcN6P; higher = faster cleavage; RNA array
Method in brief: as §1

[6] = variants of: B1; experiment: self-cleavage kobs at 160 uM GlcN6P; higher = faster cleavage; RNA array
Method in brief: as §1

[7] = variants of: B1; experiment: self-cleavage kobs at 40 uM GlcN6P; higher = faster cleavage; RNA array
Method in brief: as §1

Variant	kcat [1] [s⁻¹]	KM [2] [µM]	self-cleavage kobs at 640 uM GlcN6P [3] [s⁻¹]	self-cleavage kobs at 2500 uM GlcN6P [4] [s⁻¹]	self-cleavage kobs at 10000 uM GlcN6P [5] [s⁻¹]	self-cleavage kobs at 160 uM GlcN6P [6] [s⁻¹]	self-cleavage kobs at 40 uM GlcN6P [7] [s⁻¹]
A53C U69A	0.000135 ± 1.3e-05	683 ± 200	6.52e-05 ± 1.2e-05	0.000124 ± 2.1e-05	0.000118 ± 1.8e-05		
U47G C58A	0.000264 ± 4e-05	2260 ± 690	5.5e-05 ± 1.2e-05	0.000177 ± 4.2e-05	0.000208 ± 3.2e-05		
G32A U55C	0.00196 ± 0.00036	2790 ± 760	0.000403 ± 4.8e-05	0.00122 ± 0.0002	0.00143 ± 0.00018	9.47e-05 ± 1.6e-05	
A42U C70U	0.000154 ± 2e-05	1640 ± 560	3.64e-05 ± 7.2e-06	0.000112 ± 1.2e-05	0.000126 ± 1.2e-05		
A12C C67U	0.00763 ± 0.0029	2210 ± 1000	0.00137 ± 0.0002	0.00322 ± 0.00048	0.00923 ± 0.0012	0.000508 ± 5.5e-05	0.000156 ± 1.3e-05
C10U C71U	3.48e-05 ± 5.8e-06			1.75e-05 ± 5.3e-06	3.05e-05 ± 5.4e-06		< 1e-05
U46A U47G	0.00143 ± 0.00056		0.000647 ± 0.00013	0.00107 ± 0.00027	0.00106 ± 0.00029	9.77e-05 ± 3.5e-05	
G13A A14C	0.000465 ± 2.9e-05	2440 ± 230	9.47e-05 ± 1.2e-05	0.000245 ± 3.2e-05	0.000353 ± 8.7e-05	2.93e-05 ± 1e-05	
A42C U55A	1.17e-05 ± 4.9e-06						
C11G G59A	0.000401 ± 1.7e-05	8670 ± 560	2.81e-05 ± 1e-05	8.92e-05 ± 1.8e-05	0.000215 ± 3.6e-05		
U30A A48C	9.77e-05 ± 4.8e-06				4.29e-05 ± 8.1e-06		
A42C	1.83e-05 ± 2.5e-07	5140 ± 190			1.21e-05 ± 1.4e-06		
A52U U55C	0.000619 ± 0.00011			0.000125 ± 3.2e-05	0.000288 ± 4.2e-05		
A15U U30A	0.0245 ± 0.006	377 ± 130	0.0102 ± 0.0044		0.0272 ± 0.0062		0.00246 ± 0.0004
A39G A42C	3.82e-05 ± 3.7e-06			3e-05 ± 1.4e-05	3.4e-05 ± 8e-06		
G29C G66A	0.00186 ± 0.00025	4030 ± 750	0.00027 ± 3.9e-05	0.000714 ± 0.00013	0.00132 ± 0.0002	6.45e-05 ± 1.3e-05	
U31G A42U	5.2e-05 ± 1.3e-05			2.29e-05 ± 1.1e-05	4.27e-05 ± 1.1e-05		
A14G C61U	3.27e-05 ± 1.8e-06	592 ± 240		2.91e-05 ± 9.3e-06	3.02e-05 ± 6.3e-06		

Variant	kcat [1] [s⁻¹]	KM [2] [µM]	self-cleavage kobs at 640 uM GlcN6P [3] [s⁻¹]	self-cleavage kobs at 2500 uM GlcN6P [4] [s⁻¹]	self-cleavage kobs at 10000 uM GlcN6P [5] [s⁻¹]	self-cleavage kobs at 160 uM GlcN6P [6] [s⁻¹]	self-cleavage kobs at 40 uM GlcN6P [7] [s⁻¹]
U65G C71U	0.00415 ± 0.00046	2960 ± 430	0.000688 ± 0.00013	0.00232 ± 0.00055	0.00316 ± 0.00037	0.000189 ± 3.4e-05	5.93e-05 ± 7e-06
A36C A52U U56G U65A U69A	2.16e-05 ± 2.7e-06						
A6U A12C	0.000271 ± 9.3e-05			0.000111 ± 3.2e-05	0.000168 ± 2.9e-05		
A39C C67A	0.00061 ± 0.00015	1790 ± 670	0.000144 ± 1.2e-05	0.000714 ± 0.00014	0.000522 ± 5e-05	5.89e-05 ± 7.1e-06	2.37e-05 ± 5.8e-06
G44C U47G G66U C67G	0.000596 ± 0.00019		0.000152 ± 5e-05	0.000668 ± 0.00032	0.000455 ± 0.00013		
C67A U69C	0.00359 ± 0.0017		0.0019 ± 0.00079		0.00665 ± 0.0025		0.000527 ± 0.00011
A14G U31G	0.00752 ± 0.0003	2120 ± 140	0.00175 ± 0.00031	0.0039 ± 0.00067	0.00635 ± 0.00094	0.000539 ± 9.8e-05	
C50A G51A	< 1e-05				< 1e-05		
A6U U46A	0.000115 ± 1.6e-05						
U45G A48G	2.93e-05 ± 2.6e-06	2270 ± 860					
G13U G29C	0.000126 ± 2.5e-05		4.72e-05 ± 1.7e-05	0.00015 ± 2.3e-05	0.000107 ± 1.4e-05		
U31G G59U	3.05e-05 ± 9.5e-07	511 ± 160			2.88e-05 ± 1e-05		
G43U C67U C68U	4.99e-05 ± 2e-05			7.28e-05 ± 2.2e-05	3.53e-05 ± 1.7e-05		
A14U A36U	< 1e-05			< 1e-05	< 1e-05	< 1e-05	
G40A C67U	0.000237 ± 3.9e-05	964 ± 350	9.44e-05 ± 9.9e-06	0.000218 ± 2.6e-05	0.000189 ± 2.6e-05	2.41e-05 ± 1.1e-05	
G29C U55A	0.00298 ± 0.00096	3270 ± 1400	0.000406 ± 6.1e-05	0.00139 ± 0.00019	0.00222 ± 0.00061	0.000171 ± 3e-05	4.44e-05 ± 1.1e-05
C58A C70G	5.06e-05 ± 4.7e-06	91.6 ± 44	3.65e-05 ± 1.3e-05	5.19e-05 ± 1.1e-05		3.59e-05 ± 1.2e-05	
